Data reported in US20190002560A1 (Alector, published 2019).
Where “and” joins values, the source holds several entries; their conditions need not be identical. Equal values may be shown once.

Experiments:
Y49A = experiment: alanine-scanning library in HEK-293T cells, immunofluorescence by flow cytometry; mean of duplicates, mock-subtracted, normalised to wild-type CD33; range in parentheses
N20A = experiment: as above
F44A = experiment: as above
F21A = experiment: as above
P46A = experiment: as above
Y50A = experiment: as above
N53A = experiment: as above
D18A = experiment: as above
P19A = experiment: as above
K52A = experiment: as above
human CD33 [1] = biological target: T1, human CD33 (human, UniProt P20138 18-364); experiment: flow cytometry, human primary dendritic cells, 10 ug/ml antibody
CD33-Fc (human) = CD33-Fc (human) (UniProt P20138); experiment: red blood cell solid adhesion assay, plate-bound CD33-Fc, antibody at 1.0 ug/ml; competitor: ligands on red blood cells; % of RBC binding without antibody
human CD33 [2] = biological target: T1, human CD33; experiment: flow cytometry, human primary monocytes, 10 ug/ml antibody
human CD33 [3] = biological target: T1, human CD33; experiment: cell-based or functional assay
human CD33 [4] = biological target: T1, human CD33; experiment: flow cytometry, CHO cells expressing recombinant human CD33, 10 ug/ml antibody, PE secondary
human CD33 [5] = biological target: T1, human CD33; experiment: flow cytometry, human primary macrophages, 10 ug/ml antibody
human CD33 [6] = biological target: T1, human CD33; experiment: flow cytometry binding curve on human primary dendritic cells, about 0.003-3 nM antibody
[7] = biological target: histidine-tagged human CD33 (Sino Biological) (human, UniProt P20138 18-364); experiment: SPR (BiaCore T200, 25 C), antibody captured on anti-mouse IgG chip, 20 nM His-tagged CD33 in solution, single-concentration 1:1 fit; apparent KD
human CD33 [8] = biological target: T1, human CD33; experiment: flow cytometry binding curve on human primary dendritic cells, about 0.003-3 nM antibody (FIG. 5H)

T1 sequence (P20138 18-364 limits assumed): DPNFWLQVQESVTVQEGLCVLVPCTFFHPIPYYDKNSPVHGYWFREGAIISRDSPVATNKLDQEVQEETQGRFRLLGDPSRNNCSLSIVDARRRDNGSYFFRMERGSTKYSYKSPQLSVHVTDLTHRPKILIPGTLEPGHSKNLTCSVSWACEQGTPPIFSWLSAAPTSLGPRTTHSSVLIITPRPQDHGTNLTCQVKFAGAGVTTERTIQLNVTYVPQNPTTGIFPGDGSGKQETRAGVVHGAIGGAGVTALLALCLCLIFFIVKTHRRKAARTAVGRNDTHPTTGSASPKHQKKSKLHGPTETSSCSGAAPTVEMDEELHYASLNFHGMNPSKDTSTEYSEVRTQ
Sequence of histidine-tagged human CD33 (Sino Biological) (P20138 18-364): as the sequence (P20138 18-364 limits assumed) above
Sequence of Y50A (receptor chain, as listed by the source Y50A Y50A limits assumed): as the sequence (P20138 18-364 limits assumed) above, with Y33A counted along it
Sequence of F21A (receptor chain, as listed by the source F21A F21A limits assumed): as the sequence (P20138 18-364 limits assumed) above, with F4A counted along it
Sequence of N20A (receptor chain, as listed by the source N20A N20A limits assumed): as the sequence (P20138 18-364 limits assumed) above, with N3A counted along it
Sequence of D18A (receptor chain, as listed by the source D18A D18A limits assumed): as the sequence (P20138 18-364 limits assumed) above, with D1A counted along it
Sequence of K52A (receptor chain, as listed by the source K52A K52A limits assumed): as the sequence (P20138 18-364 limits assumed) above, with K35A counted along it
Sequence of P19A (receptor chain, as listed by the source P19A P19A limits assumed): as the sequence (P20138 18-364 limits assumed) above, with P2A counted along it
Sequence of P46A (receptor chain, as listed by the source P46A P46A limits assumed): as the sequence (P20138 18-364 limits assumed) above, with P29A counted along it
Sequence of N53A (receptor chain, as listed by the source N53A N53A limits assumed): as the sequence (P20138 18-364 limits assumed) above, with N36A counted along it
Sequence of Y49A (receptor chain, as listed by the source Y49A Y49A limits assumed): as the sequence (P20138 18-364 limits assumed) above, with Y32A counted along it
Sequence of F44A (receptor chain, as listed by the source F44A F44A limits assumed): as the sequence (P20138 18-364 limits assumed) above, with F27A counted along it

WM53 MAb (antibody)
Binding Reactivity (% WT) (Y49A): 1.7 % WT
Binding Reactivity (% WT) (N20A): 166 % WT
Binding Reactivity (% WT) (F44A): 76.5 % WT
Binding Reactivity (% WT) (F21A): 137 % WT
Binding Reactivity (% WT) (P46A): 152 % WT
Binding Reactivity (% WT) (Y50A): 75.1 % WT
Binding Reactivity (% WT) (N53A): 164 % WT
Binding Reactivity (% WT) (D18A): 98 % WT
Binding Reactivity (% WT) (P19A): 116 % WT
Binding Reactivity (% WT) (K52A): 12.4 % WT

isotype mIgG1 control antibody
% Positive (human CD33 [1]): 1.97%
MFI (human CD33 [1]): 861
Percent RBC Binding to CD33 (CD33-Fc (human)): 83.8%
% Positive (human CD33 [2]): 2.38%
MFI (human CD33 [2]): 109
% CD33 surface expression, U937 cells (FACS, 1.0 ug/ml antibody, 24 h, % of no antibody) (human CD33 [3]): 95.7%
% CD33 surface expression, human microglial cells (FACS, % of no antibody) (human CD33 [3]): 92.1%
% CD33 surface expression, human primary dendritic cells (FACS, 1.0 ug/ml antibody, 24 h, % of no antibody) (human CD33 [3]): 70.5%
% CD33 surface expression, human primary macrophages (FACS, 1.0 ug/ml antibody, 24 h, % of no antibody) (human CD33 [3]): 95.4%
% CD33 surface expression, human primary monocytes (FACS, 1.0 ug/ml antibody, 24 h, % of no antibody) (human CD33 [3]): 104%
% Positive (human CD33 [4]): 0.47%
MFI (human CD33 [4]): 227
% Positive (human CD33 [5]): 4.16%
MFI (human CD33 [5]): 1220

B1: anti-CD33 antibody 2F5 (antibody, V domains shown)
VH: EVQLQQSGPELVKPGASVKISCKASGYTFTDYNLHWVKLSHGKSLEWIGFIYPSNGITGYNQKFKNKATLTVDNSSSTAYMELRSLTSEDSAVYYCARSTVDYFDYWGQGTTLTVSS
VL: ZTQSLASLAVSLGQRATMSCRASQSVSTSTYSYMHWYQQKPGQPPKLLIKYASNLECGVPARFSGSGZGTDFTLNIHPVEEEDSATYYCQHSWEIPLTFGGGTKLEMK
notes: Mouse hybridoma antibody, tested under the label 2F5; also called C-2F5; 2F5 mAb
% Positive (human CD33 [1]): 99%
MFI (human CD33 [1]): 4300
Percent RBC Binding to CD33 (CD33-Fc (human)): 11.5%
% Positive (human CD33 [2]): 97.5%
MFI (human CD33 [2]): 1200
% CD33 surface expression, U937 cells (FACS, 1.0 ug/ml antibody, 24 h, % of no antibody) (human CD33 [3]): 46.7%
% CD33 surface expression, human microglial cells (FACS, % of no antibody) (human CD33 [3]): 25%
% CD33 surface expression, human primary dendritic cells (FACS, 1.0 ug/ml antibody, 24 h, % of no antibody) (human CD33 [3]): 15.9%
% CD33 surface expression, human primary macrophages (FACS, 1.0 ug/ml antibody, 24 h, % of no antibody) (human CD33 [3]): 58.7%
% CD33 surface expression, human primary monocytes (FACS, 1.0 ug/ml antibody, 24 h, % of no antibody) (human CD33 [3]): 23.3%
EC50 for reducing cell surface expression of CD33 (12-point 2-fold titration, FACS) (human CD33 [3]): 0.0215 nM
cell surface CD33 on hCD45+ hCD14+ blood cells of hu-NSGS mice (FACS, 40 mg/kg i.p.) (human CD33 [3]): 80%
cell surface CD33 on human primary monocytes at 0.001 ug/ml antibody (FACS, % of no antibody) (human CD33 [3]): 50% and 30%
cell surface CD33 on human primary monocytes at 0.01 ug/ml antibody (FACS, % of no antibody) (human CD33 [3]): 20%
cell surface CD33 on peripheral human CD45+ CD14+ monocytes of humanized NOG mice (FACS, single i.p. dose) (human CD33 [3]): 50%
fold improvement over gemtuzumab in reducing cell surface levels of CD33 on human primary monocytes (human CD33 [3]): 10 fold
fold improvement over lintuzumab in reducing cell surface levels of CD33 on human primary monocytes (human CD33 [3]): 100 fold
Binding Reactivity (% WT) (Y49A): 20.6 % WT
Binding Reactivity (% WT) (N20A): 111 % WT
Binding Reactivity (% WT) (F44A): 102 % WT
Binding Reactivity (% WT) (F21A): 122 % WT
Binding Reactivity (% WT) (P46A): 105 % WT
Binding Reactivity (% WT) (Y50A): 32.7 % WT
Binding Reactivity (% WT) (N53A): 78.2 % WT
Binding Reactivity (% WT) (D18A): 79.5 % WT
Binding Reactivity (% WT) (P19A): 102 % WT
Binding Reactivity (% WT) (K52A): 8.9 % WT
% Positive (human CD33 [4]): 87%
MFI (human CD33 [4]): 9520
EC50 (human CD33 [6]): 0.138 nM
Kd [7]: 0.3 nM
% Positive (human CD33 [5]): 96.7%
MFI (human CD33 [5]): 2510
EC50 (human CD33 [8]): < 0.2 nM

B2: anti-CD33 antibody lintuzumab (antibody, V domains shown)
VH: QVQLVQSGAEVKKPGSSVKVSCKASGYTFTDYNMHWVRQAPGQGLEWIGYIYPYNGGTGYNQKFKSKATITADESTNTAYMELSSLRSEDTAVYYCARGRPAMDYWGQGTLVTVSS
VL: DIQMTQSPSSLSASVGDRVTITCRASESVDNYGISFMNWFQQKPGKAPKLLIYAASNQGSGVPSRFSGSGSGTDFTLTISSLQPDDFATYYCQQSKEVPWTFGQGTKVEIKR
notes: Commercially available antibody
EC50 (human CD33 [6]): 0.845 nM

B3: anti-CD33 antibody gemtuzumab (antibody, V domains shown)
VH: EVQLVQSGAEVKKPGSSVKVSCKASGYTITDSNIHWVRQAPGQSLEWIGYIYPYNGGTDYNQKFKNRATLTVDNPTNTAYMELSSLRSEDTAFYYCVNGNPWLAYWGQGTLVTVSS
VL: DIQLTQSPSTLSASVGDRVTITCRASESLDNYGIRFLTWFQQKPGKAPKLLMYAASNQGSGVPSRFSGSGSGTEFTLTISSLQPDDFATYYCQQTKEVPWSFGQGTKVEVKR
notes: as for B2
EC50 for reducing cell surface expression of CD33 (12-point 2-fold titration, FACS) (human CD33 [3]): 0.107 nM
EC50 (human CD33 [6]): 0.613 nM
Kd [7]: 1.1 nM

B4: anti-CD33 antibody 1A8 (antibody, V domains shown)
VH: QVQLQQSGAELVKPGASVKLSCKASGYTFTSYDINWVRQRPEQGLEWIGWIFPGDGSTKYNEKFKGKATLTTDKSSNTTYMQLSRLTSEDSAVYFCARGYHYAMDSWGQGTSVTVSS
VL: DIKMTQSPSSMYESLGERVTITCKASQDINKYLSWLQQKPGKSPKTLIYRANRLVDGVPSRFSGSGSGQDYSLTISSLEYEDMGIYHCLQYDEFPLTFGAGTKLELK
notes: Mouse hybridoma antibody; mIgG1 served as isotype control; also called 1A8.2
Percent RBC Binding to CD33 (CD33-Fc (human)): 10%
Kd [7]: 6 nM
